Test results: publication doi:10.1101/2025.01.22.634249

Molecular target: TMHC2, designed transmembrane (TM) homodimer, monomeric construct with N-terminal SpyTag and SnoopTag (wild type)
Test: single-molecule magnetic tweezers

## TRTEIIRELERSL [peptide II (13-aa peptide …)]
  increase of partial TMHC2 dimerization up to the I1 state with peptide II: 41%
  percent of traces with only partial TMHC2 dimerization with 10 μM peptide: 62%
  probability of complete TMHC2 dimerization with 10 μM peptide: 38%
